Results reported in patent publication CN114478780A (AGRICULTURAL UNIV IN CHINA, dated 2022).

B1: HN3 (antibody, V domains shown)
VH: QVQLVQSGGGLVQPGGSLRLSCAASYFDFDSYEMSWVRQAPGKGLEWIGSIYHSGSTYYNPSLKSRVTISRDNSKNTLYLQMNTLRAEDTATYYCARVNMDRFDYWGQGTLVTVSS

Columns and labels:
细胞表面的GPC3蛋白 = 细胞表面的GPC3蛋白 (UniProt P51654); test: cell-based or functional assay
GPC3-his蛋白 = GPC3-his蛋白 (UniProt P51654 25-559); test: SPR (Biacore), GPC3-his amine-coupled on CM5, antibody as analyte, 1:1 Langmuir fit

Molecule	杀伤活性 IC50, Hep3BLG cells, 72 h, luciferase viability (细胞表面的GPC3蛋白)	Kd (GPC3-his蛋白)
HN3-PE24	0.109 µg/mL	
B1		1.95 nM
